Patent US20200132689

Target: panel of anti-NAMPT murine monoclonal antibodies (mAbs)

B1: nicotinamide phosphoribosyltransferase (NAMPT) (protein)
chain: MNPAAEAEFNILLATDSYKVTHYKQYPPNTSKVYSYFECREKKTENSKLRKVKYEETVFYGLQYILNKYLKGKVVTKEKIQEAKDVYKEHFQDDVFNEKGWNYILEKYDGHLPIEIKAVPEGFVIPRGNVLFTVENTDPECYWLTNWIETILVQSWYPITVATNSREQKKILAKYLLETSGNLDGLEYKLHDFGYRGVSSQETAGIGASAHLVNFKGTDTVAGLALIKKYYGTKDPVPGYSVPAAEHSTITAWGKDHEKDAFEHIVTQFSSVPVSVVSDSYDIYNACEKIWGEDLRHLIVSRSTQAPLIIRPDSGNPLDTVLKVLEILGKKFPVTENSKGYKLLPPYLRVIQGDGVDINTLQEIVEGMKQKMWSIENIAFGSGGGLLQKLTRDLLNCSFKCSYVVTNGLGINVFKDPVADPNKRSKKGRLSLHRTPAGNFVTLEEGKGDLEEYGQDLLHTVFKNGKVTKSYSFDEIRKNAQLNIELEAAHH
NAMPT-induced NFκB phosphorylation: highly efficacious in significantly reducing NAMPT-induced NFκB phosphorylation
